The text below walks through data of patent publication US20200339702A1 (ULTRAHUMAN THIRTEEN, published 2020).

Where a chain is given by its changes, count along the chain named.

For test [1], the target named is T1, rhesus ERBB3 on transiently transfected HEK-293 cells (rhesus monkey (Macaca mulatta), UniProt P21860 20-1342 (human entry)).
T1 construct: also called rhesus ERBB3+ HEK-293 cells
T1 chain: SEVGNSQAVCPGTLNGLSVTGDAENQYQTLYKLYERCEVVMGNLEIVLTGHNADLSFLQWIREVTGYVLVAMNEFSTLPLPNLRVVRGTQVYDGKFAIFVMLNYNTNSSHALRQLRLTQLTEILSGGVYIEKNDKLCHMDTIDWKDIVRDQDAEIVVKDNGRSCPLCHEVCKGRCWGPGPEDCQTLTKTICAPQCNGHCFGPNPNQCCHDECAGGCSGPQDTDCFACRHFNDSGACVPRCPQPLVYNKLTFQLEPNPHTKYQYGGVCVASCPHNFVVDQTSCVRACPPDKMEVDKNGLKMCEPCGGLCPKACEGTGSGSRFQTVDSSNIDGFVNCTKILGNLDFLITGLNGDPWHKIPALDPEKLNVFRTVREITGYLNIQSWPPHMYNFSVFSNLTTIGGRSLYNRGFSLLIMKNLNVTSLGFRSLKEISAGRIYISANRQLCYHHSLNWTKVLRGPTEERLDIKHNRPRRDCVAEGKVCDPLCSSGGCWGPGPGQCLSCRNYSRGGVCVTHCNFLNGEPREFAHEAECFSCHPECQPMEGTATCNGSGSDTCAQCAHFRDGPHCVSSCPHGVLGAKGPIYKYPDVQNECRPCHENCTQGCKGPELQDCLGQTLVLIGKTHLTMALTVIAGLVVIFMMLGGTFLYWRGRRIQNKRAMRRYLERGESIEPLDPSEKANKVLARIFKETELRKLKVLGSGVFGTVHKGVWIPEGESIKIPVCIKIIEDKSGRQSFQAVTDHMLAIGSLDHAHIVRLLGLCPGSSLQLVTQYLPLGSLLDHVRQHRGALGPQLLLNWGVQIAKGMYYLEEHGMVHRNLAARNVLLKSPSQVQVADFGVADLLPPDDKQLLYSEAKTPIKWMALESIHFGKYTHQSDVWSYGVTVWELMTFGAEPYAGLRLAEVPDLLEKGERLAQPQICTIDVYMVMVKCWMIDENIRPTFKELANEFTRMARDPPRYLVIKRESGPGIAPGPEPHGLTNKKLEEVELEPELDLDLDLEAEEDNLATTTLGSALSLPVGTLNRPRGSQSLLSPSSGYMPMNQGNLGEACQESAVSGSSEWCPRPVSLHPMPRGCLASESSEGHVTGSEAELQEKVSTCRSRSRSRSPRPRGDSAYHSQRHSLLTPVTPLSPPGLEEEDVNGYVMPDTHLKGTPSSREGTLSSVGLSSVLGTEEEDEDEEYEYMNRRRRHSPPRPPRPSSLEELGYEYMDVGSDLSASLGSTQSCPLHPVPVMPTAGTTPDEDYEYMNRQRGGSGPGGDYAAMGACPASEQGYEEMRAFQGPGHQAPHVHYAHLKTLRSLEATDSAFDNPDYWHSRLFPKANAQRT
The experiment in a line: flow cytometry, rhesus ERBB3-transfected HEK-293 cells, IgG1null titrated. The method, then: Purified IgGs were tested in FACs for binding to human and rhesus monkey ERBB3 expressed on transiently transfected HEK-293 cells and HEK-293 wild-type cells. The IgG samples were titrated in three-fold serial dilutions starting at 500 nM to 0.008 nM. Binding of IgGs was detected with a mouse anti-human IgG conjugated to FITC. Results were analyzed by examining the Mean Fluorescence Intensity (MFI) of 10000 cells per sample in the BL-1 channel detector of a flow cytometer (Attune™ NxT Acoustic Focusing Cytometer, Invitrogen/ThermoFisher Scientific).
Antibodies to ERBB3 were analysed for concentration-dependent binding at the cell surface via flow cytometry. HEK-293 cells were transiently transfected with either human or rhesus ERBB3 full-length cDNAs. Anti-ERBB3 IgGs and an isotype control were then all tested in IgG1null format, over a concentration range of 500-0.008 nM for binding to human (FIG. 5A) and rhesus (FIG. 5B) transfected cells.
In general terms: Flow cytometry measures light scatter and fluorescence of single cells or particles in a stream.

Test [2] has as its target T2, human ERBB3 His tagged, monomeric (human, UniProt P21860 20-643, biotinylated in the Alphascreen assays (sites not given)).
T2 construct: Used unbiotinylated as Biacore analyte and biotinylated in Alphascreen; treated as one molecule; also called human ERBB3-His (Acrobiosystems); biotinylated monomeric human ERBB3
Kind of test: SPR (Biacore), captured IgG, monomeric ERBB3-His analyte.

For test [3], the target named is T1, rhesus ERBB3 on transiently transfected …. Kind of test: flow cytometry, rhesus ERBB3-transfected HEK-293. Summed up: (§1)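 Purified IgGs in IgG1null format were titrated threefold from 500 nM to 0.008 nM on HEK-293 cells transiently transfected with full-length human or rhesus ERBB3, with wild-type HEK-293 as comparison. Binding was detected with FITC anti-human IgG and read as mean fluorescence intensity of 10000 cells by flow cytometry.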

Test [4] addresses T3, human ERBB3 on transiently transfected HEK-293 cells (human, UniProt P21860 20-1342).
T3 construct: also called human ERBB3+ HEK-293 cells
The experiment in a line: flow cytometry, human ERBB3-transfected HEK-293. The method in brief:
as §1

As usually defined, the EC50 (read off the curve) is the midpoint of the concentration-response curve. The term Kd denotes a measure of binding affinity in units of concentration. In general, koff refers to the first-order rate constant of dissociation. The kon is the rate constant with which the complex forms.

B1: 09D12 IgG1null (antibody, V domains shown)
VH: QVQLVESGGGLVKPGGSLRLSCAASGFTFSDYGMSWIRQAPGKGLEWVSTISDGGSYTYYADSVKGRFTISRDNAKNSLYLQMNSLRAEDTAVYYCAREYGDYDGFDYWGQGTLVTVSS
VL: DIQMTQSPSSLSASVGDRVTITCRASQSISSYLNWYQQKPGKAPKLLIYAASSLDSGVPSRFSGSGSGTDFTLTISSLQPEDFATYYCLQYDSTPLTFGGGTKVEIK
notes: Human IgG1null and human Ckappa
For the molecule B1, in test [1], the “EC50 (read off the curve)” value is around 0.4 nM. In test [2], the dissociation constant Kd stood at 0.27 nM, the koff was 0.0035 s⁻¹ and the kon stood at 1.3e+07 M⁻¹ s⁻¹. Also, in test [3], the “maximum MFI, fold over isotype control background” value (shortened to “maximum MFI, fold”) was above 20 fold. The “maximum MFI, fold” value in test [4] was above 20 fold.

B2: TTP IgG1null (antibody, V domains shown)
VH: B1 VH with G54S, Y57T, T58I
VL: B1 VL with D55Q
notes: Designer clone; Human IgG1null and human Ckappa; also called Total Theoretically Possible clone
B2: the “EC50 (read off the curve)” value in test [1] was around 0.9 nM. In test [2], binding was put at a Kd of 1.2 nM, the koff was 0.073 s⁻¹ and the kon was 6.2e+07 M⁻¹ s⁻¹. Moreover, the “maximum MFI, fold” value in test [3] is above 20 fold. The “maximum MFI, fold” value in test [4] is above 20 fold.
